Measurements taken from paper PMC3138754, “α-SNAP Prevents Docking of the Acrosome during Sperm Exocytosis because It Sequesters Monomeric Syntaxin” (PLoS ONE, 2011).

Biological target: T1, syntaxin1 (1–262), cytosolic domain (UniProt P32851 1-262)
T1 construct: syntaxin1 residues 1-262 (cytosolic domain); pET28a plasmid from D. Fasshauer; rat syntaxin 1A is surmised from the source of the plasmid; also called syntaxin 1–262; cytosolic domain of syntaxin1; source: E. coli BLR(DE3), pET28a plasmid, extracted in 6 M urea, purified on Ni-NTA with renaturing during the washing step
Assay: co-IP; 0.9 µM syntaxin 1-262 with 1, 2.5 or 5 µM α-SNAP wild type or M105I, NSF and ATP omitted; anti-syntaxin immunoprecipitation, anti-α/β-SNAP blot, densitometry normalised to syntaxin
Details: both partners purified

fold amount recovered with syntaxin against the wild type: 2 fold
B1: α-SNAP-M105I (natural protein, UniProt P81125 1-295, looked up)
chain: MDNSGKEAEAMALLAEAERKVKNSQSFFSGLFGGSSKIEEACEIYARAANMFKMAKNWSAAGSAFCQAAHVHLQLQSKHDAATCFVDAGNAFKKADPQEAINCLIRAIEIYTDMGRFTIAAKHHISIAEIYETELVDIEKAIAHYEQSADYYKGEESNSSANKCLLKVAGYAAQLEQYQKAIDIYEQVGTNAMDSPLLKYSAKDYFFKAALCHFCIDMLNAKLAVQKYEELFPAFSDSRECKRIKKLLEAHEEQNVDSYTEAVKEYDSISRLDQWLTTMLLRIKKTIQGDEEDLR
notes: α-SNAP with the point mutation M105I that occurs in hyh mice; pET28 plasmid from P. Hanson; called one of the three full length proteins; also called M105I mutant; the mutant of the hyh mouse; source: E. coli BLR(DE3), pET28 plasmid, purified (Ni-NTA, native conditions)
